Assay [1] deals with T1, Amino acid residues 106-125 of human TNFR2 (human).
T1 sequence (peptide): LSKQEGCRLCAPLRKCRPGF
The experiment in a line: ELISA on plate-coated linear peptide S04073; Affinity cell of this row is '2+-'.

Assay [2] concerns the target T2, Amino acid residues 122-141 of human TNFR2 (human).
T2 peptide: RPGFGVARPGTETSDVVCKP
The experiment in a line: ELISA on plate-coated linear peptide S04075. As for the experimental part:
(§1) ELISA was also used to determine linear epitopes present on the extracellular surface of TNFR2. Linear peptides corresponding to various regions within the TNFR2 primary sequence were purchased from GenScript (Piscataway, NJ), diluted in coating buffer and placed on Immulon 4HBX Flat Bottom Microtiter Plates (Thermo Scientific) at a concentration of 1 µg/well. Primary TNFR2 agonistic antibodies (0.1 µg/well) were incubated with substrates. Secondary antibodies against rodent IgG were used to detect the primary antibodies. Absorbance was measured using the SPECTRAMAX^{®} 190 Absorbance Plate Reader and analyzed with SoftMax Pro 6.3 (Molecular Devices).
For orientation: An ELISA detects its analyte on a solid surface through an enzyme-linked reagent.

In assay [3] the target is T3, Amino acid residues 138-157 of human TNFR2 (human).
T3 peptide: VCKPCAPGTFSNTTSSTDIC
The experiment in a line: ELISA on plate-coated linear peptide S04077. On the procedure: as §1

In assay [4] the target is T4, Amino acid residues 50-69 of human TNFR2 (human).
T4 peptide: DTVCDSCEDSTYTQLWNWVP
The experiment in a line: ELISA, immobilised TNFR2 peptide fragments, TNFRAG1 as primary antibody. On the procedure:
(§2) The binding of antibody to each of the synthesized peptides was tested in an ELISA format. Surface-immobilized peptide arrays were incubated with primary antibody solution (overnight at 4° C.). After washing, the peptide arrays were incubated with a 1/1000 dilution of an appropriate antibody peroxidase conjugate (SBA) for one hour at 25° C. After washing, the peroxidase substrate 2,2′-azino-di-3- ethylbenzthiazoline sulfonate (ABTS) and 2 µl/ml of 3 percent H₂O₂ were added. After one hour, the color development was measured. The color development was quantified with a charge coupled device (CCD) - camera and an image processing system. The values obtained from the CCD camera range from 0 to 3000 mAU, similar to a standard 96-well plate ELISA-reader.
(§3) Affinity is reported qualitatively using a categorical four-point scale, such that an affinity score of “0” denotes lowest affinity and an affinity score of “4” denotes highest affinity.

Assay [5] concerns the target T5, Amino acid residues 154-174 of human TNFR2 (human).
T5 construct: The printed range 154-174 spans 21 residues, but the printed peptide has 20
T5 peptide: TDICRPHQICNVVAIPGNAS
Described as above. On the procedure: as §2, §3

Assay [6] addresses T6, Amino acid residues 9-28 of human TNFR2 (human).
T6 peptide: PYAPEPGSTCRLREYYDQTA
Described as above. On the procedure:
as §2, §3

Assay [7] deals with T7, Amino acid residues 58-77 of human TNFR2 (human).
T7 peptide: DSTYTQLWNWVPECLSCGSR
Described as above. As for the experimental part: as §2, §3

The target of assay [8] is T3, Amino acid residues 138-157 of human …. The assay is described as above. On the procedure:
as §2, §3

Assay [9] has as its target T8, Amino acid residues 146-165 of human TNFR2 (human).
T8 peptide: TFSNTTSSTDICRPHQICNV
The description is as above. On the procedure: as §2, §3

Assay [10] addresses T2, Amino acid residues 122-141 of human …. The description is as above. As for the experimental part:
as §2, §3

Assay [11] has as its target T9, Amino acid residues 1-20 of human TNFR2 (human).
T9 peptide: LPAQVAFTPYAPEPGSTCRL
Described as above. On the procedure: as §2, §3

Assay [12] deals with T10, Amino acid residues 17-36 of human TNFR2 (human).
T10 peptide: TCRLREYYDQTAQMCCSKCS
Described as above. On the procedure: as §2, §3

In assay [13] the target is T11, Amino acid residues 90-109 of human TNFR2 (human).
T11 peptide: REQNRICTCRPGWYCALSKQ
Described as above. As for the experimental part: as §2, §3

Assay [14] has as its target T12, Amino acid residues 114-133 of human TNFR2 (human).
T12 peptide: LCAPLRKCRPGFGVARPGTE
The description is as above. On the procedure:
as §2, §3

In assay [15] the target is T13, Amino acid residues 98-117 of human TNFR2 (human).
T13 sequence (peptide): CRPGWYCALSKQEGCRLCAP
The assay is described as follows: ELISA on plate-coated linear peptide S04072.

Assay [16] addresses T14, Amino acid residues 130-149 of human TNFR2 (human).
T14 peptide: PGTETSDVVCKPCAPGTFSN
The assay is described as follows: ELISA on plate-coated linear peptide S04076. On the procedure: as §1

Assay [17] deals with T13, Amino acid residues 98-117 of human TNFR2 (human). The assay is described as follows: ELISA, immobilised TNFR2 peptide fragments, TNFRAG1 as primary antibody.
The target in assay [18] is T15, Amino acid residues 74-93 of human TNFR2 (human).
T15 sequence (peptide): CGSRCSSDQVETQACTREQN
The description is as above.

The target in assay [19] is T16, Amino acid residues 66-85 of human TNFR2 (human).
T16 sequence (peptide): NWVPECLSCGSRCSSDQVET
Described as above.

In assay [20] the target is T17, Amino acid residues 108-127 of human TNFR2 (human).
T17 sequence (peptide): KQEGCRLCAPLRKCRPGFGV
The assay is described as above.

Assay [21] addresses T18, Amino acid residues 82-101 of human TNFR2 (human).
T18 sequence (peptide): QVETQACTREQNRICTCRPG
The assay is described as above.

Assay [22] has as its target T1, Amino acid residues 106-125 of human TNFR2 (human). The description is as above.
For assay [23], the target named is T19, Amino acid residues 34-53 of human TNFR2 (human).
T19 sequence (peptide): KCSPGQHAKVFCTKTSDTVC
The assay is described as above.

Assay [24] concerns the target T20, Amino acid residues 26-45 of human TNFR2 (human).
T20 sequence (peptide): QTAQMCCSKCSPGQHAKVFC
Described as above.

B1: agonistic TNFR2 antibody TNFRAG1 (antibody, V domains shown)
VH: EVQLQQFGAELVKPGASVKISCKASGYTFTDYNIDWVKQSHGKSLEWIGDINPNYDSTSYSQKFRGKATLTVDKSSSTAYMELRSLTSEDTAVYYCARGNSWYFDVWGAGTTVTVSS
VL: QIVLTQSPALMSASPGEKVTMTCSASSSVRYMYWYQQKPRSSPKPWIYLTSNLASGVPARFSGSGSGTSYSLTISSMEAEDAATYYCQQWSSNPLTFGAGTKLELK
notes: It was detected with secondary antibodies against rodent IgG; also called monoclonal TNFR2 antibody TNFRAG1; TNFR2 agonist antibody
For B1, the Reading in assay [1] is 0. Also, the binding result in [2], in [3] and in assay [16] was “no binding” each time. For the same molecule, the “Affinity Score” value in [4], in assay [5], in assay [6], in [7], in [8] and in assay [9] was 0 affinity score (0 lowest to 4 highest) in each case. The “Affinity Score” value in assay [10] is 0 affinity score (0 lowest to 4 highest); in assay [11], 0 affinity score (0 lowest to 4 highest); in assay [12], 0 affinity score (0 lowest to 4 highest); in assay [13], 2 affinity score (0 lowest to 4 highest); in [14], 0 affinity score (0 lowest to 4 highest). In assay [15], this molecule had an Affinity of 1. Moreover, the Affinity Score (affinity score (0 lowest to 4 highest)) was determined as 1 in assay [17]; 0 in assay [18]; 0 in assay [19]; 2 in assay [20]; 0 in assay [21]; 2 in assay [22]. Moreover, the figures for the Affinity Score (affinity score (0 lowest to 4 highest)) in [23] and in assay [24] were 0 and 1, respectively.

Values taken from patent US20230174659A1 (GENERAL HOSPITAL, published 2023).
